# Experimental data published in the DeepSol protein solubility set.
# Experiment: soluble on expression in E. coli; label from the status in PepcDB or PDB records
row,Sequence,soluble on expression in E. coli
1,MSLRYIVALTGGIGSGKSTVANAFADLGINVIDADIIARQVVEPGAPALHAIADHFGANMIAADGTLQRRALRERIFANPEEKNWLNALLHPLIQQETQHQIQQATSPYVLWVVPLLVENSLYKKANRVLVVDVSPETQLKRTMQRDDVTREHVEQILAAQATREARLAVADDVIDNNGAPDAIASDVARLHAHYLQLASQFVSQEKPEGGSHHHHHH,soluble
2,MNSEIELPVQKQLEAYNARDIDAFMAWWADDCQYYAFPATLLAGNAAEIRVRHIERFKEPDLYGELLTRVIVGNVVIDHETVTRNFPEGKGEVDVACIYEVENGRIAKAWFKIGEPRIVSQKS,soluble
3,MGSDKIHHHHHHMQNLPIYLYPNTLDVILDSGATTKGVNRVMYQHELKIQKGIKNKVRIQFKNSDQKRIVTSGTYVFSMYDAINQRLLLEKPLDILDDGTTFALRGLAELTLTENDTMDLDVSKYQFSVKYLDEDGTYLPTYSNTYYGVTGTLNLLQDVYPVLQPSQEITSFDRTYDDSIQLYQWRSGNIYATPEFNGNSALHTIAMYMTGFKGKVLVQGTLYNTPSSFNRYVTLGRKRV,not soluble
4,MGSDKIHHHHHHMLLSMNRVSNPFRATLGSTPPYLAGRRHEIEDFAEALDDGPGAHERISLITGLRGVGKTVLLNAFEEEARARSWWVISETATAGFTERIIDALFRKASEILHTHRRKLSGITLPSIGGIQFSDILEHQPKITLRSVLTEILSWQEEIDRKLGQDSVGLLITLDELHYHRREEVIDFGATIQHLVREDLNISVAMAGIPQSIKPLLASEEGKNPVTFLRRANRIDLGLIDNNEVRKALAEPVEKVGVTWESDALTDAAEACGGYPFMIQLIGQQCFKRKRSNFITVGSVAEAAVVAKRKLGQLVHEPALADLSEVDRTFLVAMAADDGPSTMSDIAQRLGVNSQYAGNYRRRLIDAEIITSSGYGQVDFELPYMREYLREHAVVDVFKQ,not soluble
5,MKTLIARHKAGEHIGICSVCSAHPLVIEAALAFDRNSTRKVLIEATSNQVNQFGGYTGMTPADFREFVFAIADKVGFARERIILGGDHLGPNCWQQENVDAAMEKSVELVKAYVRAGFSKIHLDASMSCAGDPIPLAPETVAERAAVLCFAAESVATDCQREQLSYVIGTEVPVPGGEASAIQSVHITHVEDAANTLRTHQKAFIARGLTEALTRVIAIVVQPGVEFDHSNIIHYQPQEAQALAQWIENTRMVYEAHSTDYQTRTAYWELVRDHFAILKVGPALTFALREAIFALAQIEQELIAPENRSGCLAVIEEVMLDEPQYWKKYYRTGFNDSLLDIRYSLSDRIRYYWPHSRIKNSVETMMVNLQGVDIPLGMISQYLPKQFERIQSGELSAIPHQLIMDKIYDVLRAYRYGCAE,soluble
6,MCQMPCQFSWPYTHYFTQTKNKEKILNKLIVFTGGPGAGKTSVIEQLKTQGFICAPETGRHVIQMQVANHGSALPWNDKQAFRDEMTKEEVSNYRSFNVRQGDVFFDRSIVDVYGYSKLEQLPISHELITHCQTLRYHSQVFIFPPWASIFSNDEERKQDFSEAVATYQQMVDAYHKFGYQLIEVPKMSVEDRVAFILGSVIELEHHHHHH,soluble
7,MTEKKERIDVHAYLAEFDDIPGTRVFTAQRARKGYNLNQFAMSLMKAENRERFKADESAYLDEWNLTPAAKAAVLARDYNAMIDEGGNVYFLSKLFSTDGKSFQFAAGSMTGMTQEEYAQMMIDGGRSPAGVRSIKGGY,soluble
8,MGSDKIHHHHHHMADFQGETEMTAEVFDPRALRDAFGAFATGVTVVTASDAAGKPIGFTANSFTSVSLDPPLLLVCLAKSSRNYESMTSAGRFAINVLSETQKDVSNTFARPVEDRFAAVDWRLGRDGCPIFSDVAAWFECSMQDIIEAGDHVIIIGRVTAFENSGLNGLGYARGGYFTPRLAGKAVSAAVEGEIRLGAVLEQQGAVFLAGNETLSLPNCTVEGGDPARTLAAYLEQLTGLNVTIGFLYSVYEDKSDGRQNIVYHALASDGAPRQGRFLRPAELAAAKFSSSATADIINRFVLESSIGNFGIYFGDETGGTVHPIANKDAHS,not soluble
9,SSVIDKPQVNESAFHRAEPEERESQPETTPQYSPQSVSTTVPERVYQAIDKTPTYPGRTDYEIKPRDRAPSDSSVREARIADSFKRTDWIESKLAPKPNVGKERHAEPAPSKREVHAYHELLKTPDFESQQAEQPTSIESVREVSLPQVTALGKALVVVDEQFVLMSSDSGVALVSLPRSEFYRTKGQLTPSEGALKAQPLLVPLSMKLDTDLVRLAQDYQQDFAQLGIQLKARNDKALMVMGVPAPLRQQNLQNLVPDLLSYAQTWMKGEKASTQMLPALIDWLAVQVTTVKSHYTLSEAIQIIAELEQLRHGQLPLDDKTFVSAVDFSATIAKLKP,not soluble
10,MDQAELSIEQVLKRDIPWETYMNTKLVSAKGLQLLRRYDKKPESARAQLLDEDGPAYVHLFVSILRDIFKEETVEYVLALIYEMLSANPTRARLFHDESLANEDTYEPFLRLLWKGNWFIQEKSCKILAWIISARPKAGNAVIGNGIDDVLKGLVEWLCAQLKQPSHPTRGVPIAISCLSSLLKEPVVRSSFVQADGVKLLVPLISPASTQQSIQLLYETCLCIWLLSYYEPAIEYLATSRTMQRLTEVVKHSTKEKVVRVVILTFRNLLPKGTFGAQMVDLGLPHIIHSLKTQAWSDEDLLDALNQLEEGLKDKIKKLSSFDKYKQEVLLGHLDWNPMHKETNFWRENVTCFEENDFQILRVLLTILDTSSDPRSLAVACFDISQFIQYHAAGRVIVADLKAKERVMKLINHENAEVTKNAILCIQRLLLGAKYASFLQA,soluble
11,MAHHHHHHMRLLRLSTKVGMESNNAALRAHLLSLRGTEPVGDPKNPLHVQLQIHDGHRNTLLSHTKELYVTALQHHPETFVNVIPLLPLSDDESSPSNDGGASNDSITLFNAASMTADRGFTPLFSHVALGGTFDRLHAGHKLLLTTALFYASKSLRIGVTLESMLKKKTYGSYIEPFETRCKLVSEFLYSVRRDIDVTVVGITEPSGGTNRDAEIEALVVSPETAGVLASINDERASYGLKPLECIQIPYVSAEGDGRVSSTELRRRLHENASGAN,soluble
12,MGLCMMRTLQSAPSSPLAMPEIQFCLLPDACRPLLGKFYREHQSSMRAASKGQAWVAKQEEIIGALCLTPVADGHWLTGLFVAPPLRGNAVAQRLIDAALLPLSGPVWLFCHPDLQGFYRLAGFETAQRLPQALGERLMRYSRSKPLVALHREA,not soluble
13,MWLSGARLVLPDRVLTEGSLRLEGERIAEVREGFVPSGMDLRGFTVVPGLVDLHGDSLERELEPRPGVRLPLELALPSWELRQLAAGITTVYATVAFWEGAGGVREPDQGLRLAQELWGLRSALHVDLRIHARYEVSRPQGEPAVREALRKGWVHLLSFMDHTPGQGQFHDLETYVRYMARHHGRPEAEVYDEVKRLSTRATWEGLEALAAEALAKSIPLASHDDDTPDRVALMARLGVTVSEFPVRLEAAKEAKVRGMTVVMGAPNALRGGSHHGNLSALDALREGLLDALATDYLPEAALRAPFRLAAQGLLDLPLALALVTRRPALAVGLADRGALAPGLRADLVVLKESPFSVLGAFVAGKPVFVGGELAHALA,soluble
14,MSLYISSALGPVDSGNKKEIEVEIPKGSSTSKIGEILEEKGAVKSGTVFSFYTKAKSKNLQAGTYLLNPSMSAKDVMEQMSSGNVHRPALYKVTIKEGAQVTEIAETVANELKWNKDDVVRQLNDKAFIQKMQQKYPKLLTDKIFDSNIKYPLEGYLYPATYSFYKKDTTLEEVVIPMLEKTNAIIVQNEAKMKAKNWDVHQLLTLSSLIEEEATGFTDRQKISSVFYNRLAKGMPLQTDPTVLYALGKHKQRVLYEDLKVNSPYNTYVVKGLPVGPIANSGKHSVEAALEPTQTDYYYFLAAPTGEVYYAKTLEEHNALKQKYITKKQEGHHHHHH,soluble
15,MDHQLSQHDIFISQDGQLQLTVAVDTETVWLTQAEICVLFDRERSVITKHINNVFKEGELERDSVCAIFARTADDGKTYQTQYFNLDVIISVGYRVKSKRGVQFRQWATNTLKQHLLQGYTLNQQRLVQRGIEFNQALALLSKTLTNQALINPDGQAVVNVIAEYARSWSLLQGYDEQSLTEITHKQQQMQPLALDEVLAAIAALKTNLIAKGEATDLFAQLRGNGLASSIATIEQGFGGEWFYPNVASRAAHLLYFIIKNHPFADGNKRTGSFLFLWYLQQNQHLLAKPVSEQINDTTLVALALLVAESLPDQKELMIRLIEHFILLKDSEAAALEHHHHHH,soluble
16,MDPTETFARMNKVMHQTLKYVKEVESINFSSRGVIDFNGEVMEDHQRIFLSVCTSVFANFSFSCQMDVEKLLSFLMALFENYSKENAYHNALHAADSVQMLFLILREKPATLIFTENEVILAFLATLSLGFVHPGVSNAFLARIDHPLVLVYGDMTTQQSAGLTALLYLLNREENRFIDLFANSGTQPFSQFLREILVETVLGTAPRLRSSLLRDLEKVAVADAVELNDIPILLAAVVILADNALALRPHAQFVNLAGLMVTEWLREAYEEEQRGMDPLVPNLRKQIYENGLGMAVDYCKVWLRPLITNIRALVPQDLYDNMEGNTEAPSMSEIQDFLVHLDSSNERWNDGSVPVIDIIRRITMHATSLDRKASKRAILNAASN,not soluble
17,MWEHDIVLEKIVDPVPDALYPCCIKAVRVGLKEDSWGEVQAIEEEMSTAELTANVNVALAPFQRKVVKEEGEAKKTKRAASKGRVEEVEQDVWKTLFDQALAYRDLAPWTWMDDDQIFAVVTPDGESLYCTVIGALGQEYGLVIYMGEEGYACLQDILSGTLHPKDAVFKERALLVSLAPRNHLERDDKALLRKHHIPVSGKQLLPMFRSFVPGYYPWFLSEEEAAWAAMALEQAVVVAERLRDGELFLASSARGNRLFARIAERREDGLHWRDGWVPPPKAKKKETSALDIGTDELAKAKTLERAPLFVEFSVAYVNRPIQERRWERPYFPLLVLAADAASGVILHHQVFRGQTDAKTLQQSFLAFARALGCVPSHVRVTKEHGPLLAPLLRELGVNMSTGPTPRSDEVRELFEQFAI,not soluble
18,MGHHHHHHSHKPGLSTSIPLRMSSYTFKRPVTRITPHPGNEVRYHQWEESLEKPQQVCWQRRLQGLQAYSSAGELSSTLDLANTLQKLVPSYTGGSLLEDLASGLEHSCPMPHLACSSDAVEIIPAEGVGISQLLCKQFLVTEEDIRKQEGKVKTVRERLAIALIADGLANEAEKVRDQEGCPEKR,not soluble
19,MVPRTSSSNPTLRKTSPTMADIDITRSHSLGLDDGRAAVGRVADKLETELGVDAEWTGDTLQFSGQGADGHIEVEADAVHVAINLSAFLQPMRSRVQAEAEDYLDQSLQSQS,not soluble
20,MSLGKPLIALGLEGSANKLGVGIILHDTNGSAKILANVRHTYITPPGQGFLPSDTAKHHRAWIIPLIKQAFAEAKISFKDIDCICFTKGPGIGAPLNSVALCARMLSLIHKKPLVAVNHCIGHIEMGREITGAQNPVVLYVSGGNTQVIAYSEKKYRIFGETLDIAIGNCLDRFARIIGLSNAPSPGYNIMQEAKKGKRFIELPYTVKGMDCSFSGLLSGVEAAATELLDPKNPSSVTKQDLCYSLQETGFAMLVEITERAMAHIRADSVLIVGGVGCNERLQQMMAEMSSDRGADVFSTDERFCIDNGIMIAQAGLLAYKTGDRCAVAESTITQRYRTDDVYISWRDEGHHHHHH,soluble
21,MSLGVTMHDVAKAAGVSAITVSRVLNQPQQVSEQLREKVMQAVDALAYVPSRSASTLASAKSRTVLVLIPSLANTVFLETLTGIETVLDAAGYQMLIGNSHYDAGQELQLLRAYLQHRPDGVLITGLSHAEPFERILSQHALPVVYMMDLADDGRCCVGFSQEDAGAAITRHLLSRGKRRIGFLGAQLDERVMKRLDGYRAALDAADCRDAGLEWLDPQPSSMQMGADMLDRALAERPDCDALFCCNDDLAIGALARSQQLGIAVPERLAIAGFNDLQPAAWCTPPLTTVATPRRDIGVHAAKALLQLIDGEEPASRRADLGFRLMLRRSSEGHHHHHH,soluble
